The labels stand for the following.
B2: U2AF65^UHM, C-terminal U2AF homology motif domain of U2AF65 (residues 372–475) (domain or fragment)
chain: GHPTEVLCLMNMVLPEELLDDEEYEEIVEDVRDECSKYGLVKSIEIPRPVDGVEVPGCGKIFVEFTSVFDCQKAMQGLTGRKFANRVVVTKYCDPDSYHRRDFW

Where two headings read alike, the source gives them in different places.

The target in assay [1] is T1, U2AF65^RRM123 (residues 147–475) (human, UniProt P26368 147-475). The assay can be described thus: native gel or EMSA.
Target sequence in this assay (P26368 147-475, one chain of several): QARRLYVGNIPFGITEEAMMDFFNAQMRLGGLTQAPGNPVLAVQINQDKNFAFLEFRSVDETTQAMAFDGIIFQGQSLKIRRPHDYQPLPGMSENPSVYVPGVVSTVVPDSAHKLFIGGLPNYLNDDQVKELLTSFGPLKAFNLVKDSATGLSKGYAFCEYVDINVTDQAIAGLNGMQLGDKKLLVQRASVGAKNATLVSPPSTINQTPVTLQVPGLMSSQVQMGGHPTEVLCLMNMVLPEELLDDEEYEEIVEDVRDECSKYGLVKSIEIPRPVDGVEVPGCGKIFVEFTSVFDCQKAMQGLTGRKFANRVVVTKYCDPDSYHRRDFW
For the next assay, the target named is T2, SF1^HH (residues 27–145) (human, UniProt Q15637 27-145).
T2 sequence: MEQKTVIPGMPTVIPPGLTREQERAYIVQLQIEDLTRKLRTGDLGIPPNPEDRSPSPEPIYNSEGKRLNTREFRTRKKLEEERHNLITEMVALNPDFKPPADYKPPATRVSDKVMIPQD
Briefly: ITC.

Assay [2] has as its target T3, SF1^NTD (residues 1–145) (human, UniProt Q15637 1-145). Briefly: ITC.
For assay [3], the target named is T3, SF1^NTD (residues 1–145). Briefly: ITC. This is another data set of the same source.
Assay [4] concerns the target T1, U2AF65^RRM123 (residues 147–475). Briefly: ITC.
Assay [5] addresses B2. Briefly: ITC.

B1: SF1-Δα2, SF1^2-320 with helix α2 deleted (Δ96–128) (domain or fragment, human)
chain: ATGANATPLDFPSKKRKRSRWNQDTMEQKTVIPGMPTVIPPGLTREQERAYIVQLQIEDLTRKLRTGDLGIPPNPEDRSPSPEPIYNSEGKRLNGTYKPPATRVSDKVMIPQDEYPEINFVGLLIGPRGNTLKNIEKECNAKIMIRGKGSVKEGKVGRKDGQMLPGEDEPLHALVTANTMENVKKAVEQIRNILKQGIETPEDQNDLRKMQLRELARLNGTLREDDNRILRPWQSSETRSITNTTVCTKCGGAGHIASDCKFQRPGDPQSAQDKARMDKEYLSLMAEL
Regarding B1, the binding result in assay [1] is listed as “binds”.

As to B2, the Kd was above 100000 nM with SF1^HH (residues 27–145), 85 nM with SF1^NTD (residues 1–145) [2] and 84 ± 23 nM with SF1^NTD (residues 1–145) [3].

B3: SF1^2-320 with helix α1 deleted (Δ35–68) (domain or fragment, human)
chain: ATGANATPLDFPSKKRKRSRWNQDTMEQKTVIPGTDLGIPPNPEDRSPSPEPIYNSEGKRLNTREFRTRKKLEEERHNLITEMVALNPDFKPPADYKPPATRVSDKVMIPQDEYPEINFVGLLIGPRGNTLKNIEKECNAKIMIRGKGSVKEGKVGRKDGQMLPGEDEPLHALVTANTMENVKKAVEQIRNILKQGIETPEDQNDLRKMQLRELARLNGTLREDDNRILRPWQSSETRSITNTTVCTKCGGAGHIASDCKFQRPGDPQSAQDKARMDKEYLSLMAEL
Turning to B3, the binding result in assay [1] is listed as “binds”.

B4: His6-tagged SF1^2-320 (domain or fragment, human, UniProt Q15637 2-320, looked up)
chain: ATGANATPLDFPSKKRKRSRWNQDTMEQKTVIPGMPTVIPPGLTREQERAYIVQLQIEDLTRKLRTGDLGIPPNPEDRSPSPEPIYNSEGKRLNTREFRTRKKLEEERHNLITEMVALNPDFKPPADYKPPATRVSDKVMIPQDEYPEINFVGLLIGPRGNTLKNIEKECNAKIMIRGKGSVKEGKVGRKDGQMLPGEDEPLHALVTANTMENVKKAVEQIRNILKQGIETPEDQNDLRKMQLRELARLNGTLREDDNRILRPWQSSETRSITNTTVCTKCGGAGHIASDCKFQRPGDPQSAQDKARMDKEYLSLMAEL
For B4, the binding result in assay [1] was “binds”.

B5: SF1^2-320 with the α1–α2 linker deleted (Δ75–90) (domain or fragment, human)
chain: ATGANATPLDFPSKKRKRSRWNQDTMEQKTVIPGMPTVIPPGLTREQERAYIVQLQIEDLTRKLRTGDLGIPPGTGKRLNTREFRTRKKLEEERHNLITEMVALNPDFKPPADYKPPATRVSDKVMIPQDEYPEINFVGLLIGPRGNTLKNIEKECNAKIMIRGKGSVKEGKVGRKDGQMLPGEDEPLHALVTANTMENVKKAVEQIRNILKQGIETPEDQNDLRKMQLRELARLNGTLREDDNRILRPWQSSETRSITNTTVCTKCGGAGHIASDCKFQRPGDPQSAQDKARMDKEYLSLMAEL
With B5, the binding result in assay [1] is recorded as “binds”.

B6: SF1 (residues 1–260) (domain or fragment, human, UniProt Q15637 1-260, looked up)
chain: MATGANATPLDFPSKKRKRSRWNQDTMEQKTVIPGMPTVIPPGLTREQERAYIVQLQIEDLTRKLRTGDLGIPPNPEDRSPSPEPIYNSEGKRLNTREFRTRKKLEEERHNLITEMVALNPDFKPPADYKPPATRVSDKVMIPQDEYPEINFVGLLIGPRGNTLKNIEKECNAKIMIRGKGSVKEGKVGRKDGQMLPGEDEPLHALVTANTMENVKKAVEQIRNILKQGIETPEDQNDLRKMQLRELARLNGTLREDDNR
Take B6: the Kd in assay [4] is 114 ± 23 nM.

B7: pSF1, phosphorylated SF1 (residues 1–260) (domain or fragment)
chain: MATGANATPLDFPSKKRKRSRWNQDTMEQKTVIPGMPTVIPPGLTREQERAYIVQLQIEDLTRKLRTGDLGIPPNPEDRSPSPEPIYNSEGKRLNTREFRTRKKLEEERHNLITEMVALNPDFKPPADYKPPATRVSDKVMIPQDEYPEINFVGLLIGPRGNTLKNIEKECNAKIMIRGKGSVKEGKVGRKDGQMLPGEDEPLHALVTANTMENVKKAVEQIRNILKQGIETPEDQNDLRKMQLRELARLNGTLREDDNR
modifications: phosphoserine at 80 and 82
In assay [4], B7 showed a Kd of 96 ± 32 nM.

As for MATGANATPLDFPSKKRKRSRWNQD (peptide, UniProt Q15637 1-25, looked up) [SF1^ULM (residues 1–25)], in assay [5], binding was characterised by a dissociation constant (Kd) of 127 ± 48 nM.

The record behind these values is PMC3553976 (Nucleic Acids Research, 2012).
